{"source": "paper PMC10949841", "key": {"[1]": {"biological_target": "HAdV-C5 hexon labeled with AlexaFluor594 (human adenovirus C5 (HAdV-C5)) (UniProt P04133)", "sequence (P04133 whole entry)": "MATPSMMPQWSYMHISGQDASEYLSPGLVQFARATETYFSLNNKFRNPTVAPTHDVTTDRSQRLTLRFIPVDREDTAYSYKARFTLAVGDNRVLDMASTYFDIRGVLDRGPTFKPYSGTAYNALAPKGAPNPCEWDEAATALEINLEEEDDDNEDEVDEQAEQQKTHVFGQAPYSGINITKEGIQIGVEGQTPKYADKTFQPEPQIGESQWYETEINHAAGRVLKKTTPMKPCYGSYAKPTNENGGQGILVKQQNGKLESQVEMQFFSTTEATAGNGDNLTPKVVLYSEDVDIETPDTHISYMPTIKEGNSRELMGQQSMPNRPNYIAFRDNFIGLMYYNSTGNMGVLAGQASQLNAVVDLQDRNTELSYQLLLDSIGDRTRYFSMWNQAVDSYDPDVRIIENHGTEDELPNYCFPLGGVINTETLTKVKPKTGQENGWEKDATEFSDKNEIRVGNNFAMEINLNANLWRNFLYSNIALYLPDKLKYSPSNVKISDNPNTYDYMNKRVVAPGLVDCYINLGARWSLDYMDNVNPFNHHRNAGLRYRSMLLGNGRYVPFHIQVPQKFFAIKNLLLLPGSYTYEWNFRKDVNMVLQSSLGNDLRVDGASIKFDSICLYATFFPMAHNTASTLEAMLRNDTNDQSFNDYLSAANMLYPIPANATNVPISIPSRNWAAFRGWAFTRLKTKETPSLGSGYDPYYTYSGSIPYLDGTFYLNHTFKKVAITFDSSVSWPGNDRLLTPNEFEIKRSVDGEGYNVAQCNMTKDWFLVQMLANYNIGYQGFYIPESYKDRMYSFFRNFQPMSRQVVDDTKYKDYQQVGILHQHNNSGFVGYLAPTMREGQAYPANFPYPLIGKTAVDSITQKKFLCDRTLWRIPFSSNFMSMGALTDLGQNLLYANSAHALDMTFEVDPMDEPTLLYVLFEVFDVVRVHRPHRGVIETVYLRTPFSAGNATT", "test": "MST; hexon labeled with AlexaFluor594 at constant amount, 16 concentrations of hLF or hLF mutant (1:1 serial dilution); 20 mM HEPES pH 7.2, 5 mM NaCl, 0.05% Tween 20; 25°C; Monolith NT.115; n = 2"}, "[2]": {"biological_target": "HAdV-C5 hexon (human adenovirus C5 (HAdV-C5)) (UniProt P04133)", "sequence (P04133 whole entry)": "as above", "test": "native MS; 0.5 µM hexon:hLF complex purified in buffer D, exchanged into and diluted with 20 mM ammonium acetate pH 7.0; nanoelectrospray, Orbitrap Q Exactive UHMR"}, "[3]": {"biological_target": "HAdV-C5 hexon (human adenovirus C5 (HAdV-C5)) (UniProt P04133)", "test": "native MS; 0.5 µM hexon:hLF complex purified in buffer D, exchanged into ammonium acetate pH 7.0 and diluted with water to 5.85 mM ammonium acetate; nanoelectrospray, Orbitrap Q Exactive UHMR"}, "[4]": {"biological_target": "HAdV-C5 hexon (human adenovirus C5 (HAdV-C5)) (UniProt P04133)", "test": "single-particle cryo-EM, 2D class averages; freshly purified hexon:hLF complex (1 mg/mL) on Au Quantifoil R1.2/1.3 grids, Talos Arctica; top and bottom views only, no 3D reconstruction; 2D classes used to refine a hybrid model"}}, "note": "Several values for one entry are separate records, joined by “and”; a condition that tells them apart may be missing. Identical values can stand only once.", "data": [{"substance": "hLF mut5 (R24S/R27A/K28A/R30A) (natural protein)", "values": [{"measurement": "affinity relative to WT hLF", "setting": "[1]", "result": "< 20", "unit": "%"}]}, {"substance": "hLF mut7 (N673A/S678A) (natural protein)", "values": [{"measurement": "reduction of binding affinity against WT hLF", "setting": "[1]", "result": 40, "unit": "%"}]}, {"substance": "hLF mut8 (E687A/K691A) (natural protein)", "values": [{"measurement": "reduction of binding affinity against WT hLF", "setting": "[1]", "result": 70, "unit": "%"}]}, {"substance": "human lactoferrin (hLF), wild type (natural protein)", "values": [{"measurement": "stoichiometry N (hLF per hexon trimer)", "setting": "[2]", "result": 1}, {"measurement": "stoichiometry N (hLF per hexon trimer)", "setting": "[3]", "result": "1 and 2"}, {"measurement": "stoichiometry N (hLF per hexon trimer)", "setting": "[4]", "result": "2 and 1"}]}]}
